Patent publication US20210292393A1 (published 2021)

B1: antibody 533 (antibody, V domains shown)
VH: GVQLVESGGVVVQPGGSLRLSCAASGFSFDDYTMHWVRQAPGKGLEWVSLVSWDGGTTYYTDSVKGRFTISRDNSKNSLYLQMNSLRTEDTALYFCAKDSGRIVPAATFDYWGQGTLVTVSS
VL: DIQMTQSSSSLSASVGDRVTITCRASQDISNYLAWFQQKPGKAPKSLIYAASSLQSGVPSKFSGSGSGTDFTLTISSLQPEDFATYYCQQYYTYPLTFGGGTKVEIK
B2: antibody 536 (antibody, V domains shown)
VH: QVQLVESGGGVVQPGRSLRLSCAASGFTFSSYVMHWVRQAPGKGLEWVALISYDGSNKYYADSVKGRFTISRDNSKNTLYLQMNSLRAEDTAVYYCARGGHIRVGRYFDWLISYFDYWGQGTLVTVSS
VL: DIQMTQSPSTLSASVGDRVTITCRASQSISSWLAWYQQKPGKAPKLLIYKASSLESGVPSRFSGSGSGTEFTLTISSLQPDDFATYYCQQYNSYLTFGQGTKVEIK
B3: antibody 537 (antibody, V domains shown)
VH: QVQLQQWGAGLLKPSETLSLTCAVYGGSFSGYYWSWIRQPPGKGLEWIGEINHSGSTNYNPSLKSRVTISVDTSKNQFSLKLSSVTAADTAVYYCARGLYYDMGGGFDYWGQGTLVTVSS
VL: not shown
B4: antibody 541 (antibody, V domains shown)
VH: QVQLVQSGAEVKKPGASVKVSCKASGYTFTSYYVHWVRQAPGQSLEWMGVISPSTGSTTYAQNFQGRVTMTRDTSTTTVYMELSSLRSEDTAVYYCARDDYYDSTRYFDLWGRGTLVTVSS
VL: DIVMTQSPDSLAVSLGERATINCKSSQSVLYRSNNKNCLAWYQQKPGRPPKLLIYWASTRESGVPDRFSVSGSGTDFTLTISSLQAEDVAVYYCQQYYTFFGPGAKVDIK
B5: antibody 543 (antibody, V domains shown)
VH: EVQLVESGGGLVQPGRSLRLSCAASGFTFHDYAMHWVRQAPGKGLEWVSGISWNSGSIGYADSVKGRFTISRDNAKNSLYLQMNSLRAEDTALYYCAKDTFGSSSWYRGDSYYYYGMDVWGQGTTVTVSS
VL: QSALTQPASVSGSPGQSITISCTGTSSDVGGYNYVSWYQQHPGKAPKLMIYEVSNRPSGVSNRFSGSKSGNTASLTISGLQAEDEADYYCSSYTSSSTQRYVVFGGGTKLTVL
B6: antibody 545 (antibody, V domains shown)
VH: QVQLVQSGSELKKPGASVKVSCKASGYTFTSYAMNWVRQAPGQGLEWMGWINTNTGNPTYAQGFTGRFVFSLDTSVSTAYLQISVLKAEDTGVYYCARDHELPNSSSWFGHFEYWGQGTLVTVSS
VL: SYELTQPPSVSVSPGQTARITCSGDALPKQYAYWYQQKAGQAPVLVIYKDSERRSGIPERFSGSSSGTTVTLTISGVQAEDEADYYCQSADSSGTSVVFGGGTKLTVL
B7: antibody 546 (antibody, V domains shown)
VH: QVQLVESGGGVVQPGRSLRLSCAASGFTFSSYGMHWVRQAPGKGLEWVAVIWYDGSNKYYADSVKGRFTISRDNSKNTLYLQMNSLRAEDTAVYYCARNCGGDCVAGDGFDYWGQGTLVTVSS
VL: DIQMTQSPSSLSASVGDRVTITCRASQSISSYLNWYQQKPGKAPNLLIYAASSLQSGVPSRFSGSGSGTDFTLTISSLQPEDFATYYCQQSYSALTWTFGQGTKVEIK
B8: antibody 547 (antibody, V domains shown)
VH: QVHLVESGGGVVQPGRSLRLSCAASGFALSSYAMHWVRQPPGKGLEWVALISYDGSVKKYADSVKGRITVSGDNSRNTLHLQINSLRADDTAVYYCVRGGVSGPNSFDLWGHGTMVTVSS
VL: DVVLTQSPLSLPVTLGQPASISCRSSQSLEYSVGNTYVNWFQQRPGQSPRRLIYKVSNRDSGVPDRFSGSGSGTDFTLQISRVEADDVGIYYCMQGTHWPVTFGQGTKVEIK
B9: antibody 548 (antibody, V domains shown)
VH: QVQLVESGGGVVQPGRSLRLSCAASGFTFSSYAMHWVRQAPGKGLEWVAVISYDGSNKYYADSVKGRFTISRDNSKNTLYLQMNNLRAEDTAVYYCAKSGSGSYLSAFDIWGQGTMVTVSS
VL: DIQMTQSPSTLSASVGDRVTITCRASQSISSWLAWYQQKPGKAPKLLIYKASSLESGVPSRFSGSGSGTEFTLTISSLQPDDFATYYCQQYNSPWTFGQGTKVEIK
B10: antibody 556 (antibody, V domains shown)
VH: QVQLVESGGGVVQPGRSLRLSCAASGFTFSSYAMHWVRQAPGKGLEWVAVISYDGSDKYYADSVKGRVTISRDNSKNTLYLQMNSLRVEDTAVFYCAKDDCSGGVCFPDYWGQGTLVTVSS
VL: QSALTQPASVSGSPGQSITISCTGTSSDVGGYNYVSWYQQHPGKAPKLMIYEVSIRPSGVSNRFSGSKSGNTASLTISGLQAEDEAAYYCSSYTSSSTLVFGGGTKLTVL

biological target: SARS-CoV-2 full length spike protein, V483A mutant (SARS-CoV-2, UniProt P0DTC2 14-1273)

Which “median fold over isotype” value does the source give for B1 here?
Its value is 4.86 fold over isotype.

B2 was tested. Which “median fold over isotype” value did it give?
Its value is 2.59 fold over isotype.

For B3, which “median fold over isotype” value is on record?
The value was 3.74 fold over isotype.

How did the “median fold over isotype” value turn out when B4 was run?
The value was 1.6 fold over isotype.

Which “median fold over isotype” value does the source give for B5 here?
The value was 8.92 fold over isotype.

Which “median fold over isotype” value does the source give for B6 here?
The value was 14.3 fold over isotype.

For B7, which “median fold over isotype” value is on record?
The value was 18.9 fold over isotype.

With B8 as the binder, how does the “median fold over isotype” value read?
The value was 11.4 fold over isotype.

B9 was tested. Which “median fold over isotype” value did it give?
Its value is 10.1 fold over isotype.

For B10, which “median fold over isotype” value is on record?
The value was 7.35 fold over isotype.
